Data published in the supplement of paper PMC10065799, “High-throughput profiling of sequence recognition by tyrosine kinases and SH2 domains using bacterial peptide display” (eLife, 2023).

Columns and labels:
[1] = test system: AncSZ; experiment: phosphorylation enrichment, bacterial display (enrichment ratio); higher = better substrate or ligand; peptides without Tyr show the background
[2] = target: EPHB1 (UniProt P54762); experiment: as above
[3] = target: EPHB2 (UniProt P29323); experiment: as above
[4] = target: FGFR1 (UniProt P11362); experiment: as above
[5] = target: FGFR3 (UniProt P22607); experiment: as above
[6] = test system: Fer (mouse); experiment: as above
[7] = target: Fes (UniProt P07332); experiment: as above
Fes, sequence (P07332 whole entry, looked up): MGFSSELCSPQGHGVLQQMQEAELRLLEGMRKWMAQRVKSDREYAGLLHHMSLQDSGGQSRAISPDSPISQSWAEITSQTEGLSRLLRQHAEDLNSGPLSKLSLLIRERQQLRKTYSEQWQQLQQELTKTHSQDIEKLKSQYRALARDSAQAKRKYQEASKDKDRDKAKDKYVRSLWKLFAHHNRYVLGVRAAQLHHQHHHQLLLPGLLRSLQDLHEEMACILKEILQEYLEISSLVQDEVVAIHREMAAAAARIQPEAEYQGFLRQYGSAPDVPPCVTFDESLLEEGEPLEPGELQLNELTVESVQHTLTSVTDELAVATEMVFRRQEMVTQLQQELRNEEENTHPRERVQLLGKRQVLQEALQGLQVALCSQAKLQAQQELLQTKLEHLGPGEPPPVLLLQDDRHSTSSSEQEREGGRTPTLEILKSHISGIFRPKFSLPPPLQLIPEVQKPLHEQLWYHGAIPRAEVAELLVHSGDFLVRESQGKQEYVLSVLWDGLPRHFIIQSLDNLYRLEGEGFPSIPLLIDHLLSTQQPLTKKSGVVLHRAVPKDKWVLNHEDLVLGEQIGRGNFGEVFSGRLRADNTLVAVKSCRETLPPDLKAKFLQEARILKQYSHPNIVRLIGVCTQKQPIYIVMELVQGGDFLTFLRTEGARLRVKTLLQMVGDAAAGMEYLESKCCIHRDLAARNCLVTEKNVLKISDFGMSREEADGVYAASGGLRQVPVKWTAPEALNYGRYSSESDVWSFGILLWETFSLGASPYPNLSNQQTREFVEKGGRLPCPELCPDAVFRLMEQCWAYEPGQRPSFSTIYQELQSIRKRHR

[8] = target: Fyn (UniProt P06241); experiment: as above
Fyn, sequence (P06241 whole entry, looked up): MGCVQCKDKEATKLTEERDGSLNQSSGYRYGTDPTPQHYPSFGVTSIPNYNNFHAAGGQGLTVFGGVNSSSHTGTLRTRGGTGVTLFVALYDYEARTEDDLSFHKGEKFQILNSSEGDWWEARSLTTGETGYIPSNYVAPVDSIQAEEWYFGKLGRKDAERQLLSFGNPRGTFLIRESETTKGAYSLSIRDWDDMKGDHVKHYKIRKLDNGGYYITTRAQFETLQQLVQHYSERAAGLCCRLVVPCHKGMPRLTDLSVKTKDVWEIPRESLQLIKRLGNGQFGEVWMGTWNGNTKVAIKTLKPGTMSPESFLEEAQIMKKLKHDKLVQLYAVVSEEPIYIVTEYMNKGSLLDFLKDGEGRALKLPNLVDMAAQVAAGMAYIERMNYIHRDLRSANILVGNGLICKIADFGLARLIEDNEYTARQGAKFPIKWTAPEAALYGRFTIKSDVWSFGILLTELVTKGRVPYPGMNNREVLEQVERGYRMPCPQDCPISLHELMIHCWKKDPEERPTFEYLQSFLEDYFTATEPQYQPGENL

[9] = target: Hck (UniProt P08631); experiment: as above
[10] = target: Jak2 (UniProt O60674); experiment: as above
Jak2, sequence (O60674 whole entry, looked up): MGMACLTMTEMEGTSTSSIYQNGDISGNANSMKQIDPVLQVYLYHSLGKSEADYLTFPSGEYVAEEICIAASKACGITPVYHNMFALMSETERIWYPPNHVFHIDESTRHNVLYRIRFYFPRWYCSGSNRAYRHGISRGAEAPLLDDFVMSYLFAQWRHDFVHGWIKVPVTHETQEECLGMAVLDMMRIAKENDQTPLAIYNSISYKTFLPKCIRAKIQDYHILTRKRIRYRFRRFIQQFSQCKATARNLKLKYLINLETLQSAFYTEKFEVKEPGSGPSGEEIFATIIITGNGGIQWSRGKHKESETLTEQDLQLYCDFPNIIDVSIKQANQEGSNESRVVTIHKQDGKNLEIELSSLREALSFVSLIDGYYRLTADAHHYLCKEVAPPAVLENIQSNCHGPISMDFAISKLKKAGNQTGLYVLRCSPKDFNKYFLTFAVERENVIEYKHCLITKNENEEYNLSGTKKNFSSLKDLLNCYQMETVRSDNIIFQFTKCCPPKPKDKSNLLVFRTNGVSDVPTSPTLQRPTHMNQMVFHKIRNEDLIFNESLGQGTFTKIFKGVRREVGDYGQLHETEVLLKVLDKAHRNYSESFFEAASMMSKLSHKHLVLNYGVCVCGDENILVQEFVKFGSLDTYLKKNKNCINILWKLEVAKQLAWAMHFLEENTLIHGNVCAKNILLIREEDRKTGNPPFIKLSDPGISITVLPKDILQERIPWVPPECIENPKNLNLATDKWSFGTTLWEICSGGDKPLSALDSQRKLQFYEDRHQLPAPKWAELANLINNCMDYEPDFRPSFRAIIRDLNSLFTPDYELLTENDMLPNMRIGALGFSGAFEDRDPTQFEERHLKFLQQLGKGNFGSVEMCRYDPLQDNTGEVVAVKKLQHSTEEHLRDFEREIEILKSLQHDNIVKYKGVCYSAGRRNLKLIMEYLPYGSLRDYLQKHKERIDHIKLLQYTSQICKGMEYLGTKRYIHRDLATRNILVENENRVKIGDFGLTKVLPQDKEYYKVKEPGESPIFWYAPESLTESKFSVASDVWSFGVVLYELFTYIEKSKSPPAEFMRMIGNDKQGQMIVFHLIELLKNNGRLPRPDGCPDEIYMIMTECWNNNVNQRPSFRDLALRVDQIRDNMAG

[11] = target: MERTK (UniProt Q12866); experiment: as above
MERTK, sequence (Q12866 whole entry, looked up): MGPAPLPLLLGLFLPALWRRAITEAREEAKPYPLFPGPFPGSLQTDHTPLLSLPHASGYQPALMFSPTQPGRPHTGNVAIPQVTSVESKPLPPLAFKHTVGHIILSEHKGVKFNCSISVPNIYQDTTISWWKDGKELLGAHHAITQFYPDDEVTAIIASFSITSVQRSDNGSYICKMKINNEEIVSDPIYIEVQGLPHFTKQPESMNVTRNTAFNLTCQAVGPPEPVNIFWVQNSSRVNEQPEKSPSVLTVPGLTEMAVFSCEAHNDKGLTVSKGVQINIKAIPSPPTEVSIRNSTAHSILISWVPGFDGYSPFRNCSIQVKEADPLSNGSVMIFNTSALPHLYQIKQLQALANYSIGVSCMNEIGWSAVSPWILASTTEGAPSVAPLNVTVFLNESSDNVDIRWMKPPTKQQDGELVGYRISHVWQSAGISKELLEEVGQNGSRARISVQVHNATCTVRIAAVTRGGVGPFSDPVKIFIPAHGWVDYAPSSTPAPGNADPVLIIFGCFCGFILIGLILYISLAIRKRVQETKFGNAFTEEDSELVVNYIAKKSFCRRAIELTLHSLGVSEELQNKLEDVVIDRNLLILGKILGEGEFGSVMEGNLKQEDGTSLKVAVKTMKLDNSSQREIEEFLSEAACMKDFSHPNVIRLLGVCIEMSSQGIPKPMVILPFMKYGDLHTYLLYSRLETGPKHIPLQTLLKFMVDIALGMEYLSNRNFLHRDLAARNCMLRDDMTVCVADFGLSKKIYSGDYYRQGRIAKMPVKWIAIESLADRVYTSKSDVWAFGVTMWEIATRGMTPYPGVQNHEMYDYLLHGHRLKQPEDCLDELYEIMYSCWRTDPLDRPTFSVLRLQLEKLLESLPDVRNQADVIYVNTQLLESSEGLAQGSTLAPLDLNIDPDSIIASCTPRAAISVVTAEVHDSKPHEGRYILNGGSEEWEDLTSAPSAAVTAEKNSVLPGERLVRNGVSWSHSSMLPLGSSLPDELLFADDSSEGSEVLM

[12] = test system: c-Abl (mouse); experiment: as above
[13] = test system: c-Src; experiment: as above
[14] = target: Grb2 SH2 (UniProt P62993); experiment: SH2 binding enrichment of the phosphorylated peptide, bacterial display (enrichment ratio); higher = better substrate or ligand; peptides without Tyr show the background
Grb2 SH2, sequence (P62993 whole entry, looked up): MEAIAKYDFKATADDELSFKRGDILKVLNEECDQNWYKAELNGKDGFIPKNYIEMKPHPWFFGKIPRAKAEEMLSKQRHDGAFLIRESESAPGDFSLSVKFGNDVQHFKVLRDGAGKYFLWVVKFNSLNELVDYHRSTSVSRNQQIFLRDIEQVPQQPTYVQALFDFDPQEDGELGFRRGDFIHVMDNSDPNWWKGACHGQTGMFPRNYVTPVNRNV

[15] = target: SHP2-C SH2; experiment: as above
[16] = target: c-Src SH2; experiment: as above
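For SH2 binding enrichment of the phosphorylated peptide, bacterial display in this document: peptide library displayed on the E. coli surface as eCPX fusions, selected cells deep-sequenced, score is each peptide's frequency after selection divided by its frequency in the input.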
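For phosphorylation enrichment, bacterial display in this document: 11-residue human phosphosite peptides and single-mutation variants displayed on the E. coli surface, counted by deep sequencing, each peptide's frequency after selection divided by its frequency in the unselected input library; frequency after pTyr selection over input frequency; kinase dosed for 20-30% of maximal phosphorylation in three min.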

EPHB1, sequence (P54762 whole entry, looked up): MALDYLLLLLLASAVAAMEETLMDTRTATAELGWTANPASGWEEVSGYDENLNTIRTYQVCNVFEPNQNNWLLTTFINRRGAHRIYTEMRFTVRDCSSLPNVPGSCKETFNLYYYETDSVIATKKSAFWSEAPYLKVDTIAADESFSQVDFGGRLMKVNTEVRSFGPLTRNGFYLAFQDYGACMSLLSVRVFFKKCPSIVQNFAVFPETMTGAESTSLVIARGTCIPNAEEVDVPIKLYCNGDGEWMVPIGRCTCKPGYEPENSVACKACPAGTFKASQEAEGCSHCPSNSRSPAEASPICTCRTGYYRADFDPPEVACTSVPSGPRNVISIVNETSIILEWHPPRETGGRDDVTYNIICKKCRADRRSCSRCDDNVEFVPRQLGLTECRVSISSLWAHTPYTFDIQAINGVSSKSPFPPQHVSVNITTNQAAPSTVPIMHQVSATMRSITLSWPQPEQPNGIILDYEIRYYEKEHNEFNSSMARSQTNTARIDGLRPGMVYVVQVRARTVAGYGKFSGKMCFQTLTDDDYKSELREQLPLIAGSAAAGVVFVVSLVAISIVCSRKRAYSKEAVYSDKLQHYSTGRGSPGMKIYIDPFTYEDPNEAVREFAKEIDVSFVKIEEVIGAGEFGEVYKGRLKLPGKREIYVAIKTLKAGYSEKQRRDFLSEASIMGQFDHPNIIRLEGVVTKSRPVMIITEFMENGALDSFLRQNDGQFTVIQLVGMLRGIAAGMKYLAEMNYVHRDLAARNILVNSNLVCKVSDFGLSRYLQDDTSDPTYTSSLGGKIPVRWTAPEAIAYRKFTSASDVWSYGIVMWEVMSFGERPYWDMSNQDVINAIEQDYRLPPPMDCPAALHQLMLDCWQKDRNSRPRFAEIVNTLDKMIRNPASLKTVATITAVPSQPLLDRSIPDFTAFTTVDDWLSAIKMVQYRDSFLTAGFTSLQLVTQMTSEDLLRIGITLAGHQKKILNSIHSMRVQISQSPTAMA

Sequence | phosphorylation enrichment [1] | phosphorylation enrichment [2] | phosphorylation enrichment [3] | phosphorylation enrichment [4] | phosphorylation enrichment [5] | phosphorylation enrichment [6] | phosphorylation enrichment [7] | phosphorylation enrichment [8] | phosphorylation enrichment [9] | phosphorylation enrichment [10] | phosphorylation enrichment [11] | phosphorylation enrichment [12] | phosphorylation enrichment [13] | SH2 binding enrichment [14] | SH2 binding enrichment [15] | SH2 binding enrichment [16]
RYVSRYIYNRE [HLA-DQB1_Y62_T60S] | 1.29 | 0.922 | 0.95 | 0.658 | 0.739 | 0.844 | 1.11 | 0.829 | 0.551 | 0.92 | 0.993 | 0.666 | 1.08 | 0.659 | 0.245 | 0.368
KKRRSYGNSSD [SELENOK_Y52] | 0.554 | 0.472 | 0.394 | 0.383 | 0.395 | 0.417 | 0.582 | 0.448 | 0.511 | 0.475 | 0.51 | 0.479 | 0.525 | 0.601 | 0.525 | 0.376
FGSGNYNVFGN [HNRNPA2B1_Y300_D302V_YF] | 0.575 | 0.481 | 0.476 | 0.483 | 0.434 | 0.338 | 0.508 | 0.396 | 0.423 | 0.449 | 0.406 | 0.328 | 0.412 | 0.766 | 0.805 | 0.682
YGAHNYHPLPV [OAT_Y55] | 0.61 | 1.24 | 1.53 | 9.73 | 5.68 | 1.06 | 0.728 | 0.599 | 1.28 | 0.642 | 2.37 | 0.675 | 0.632 | 0.866 | 0.827 | 1.01
AEQDWYHGAIP [FER_Y461] | 1.06 | 0.481 | 0.546 | 1.72 | 1.54 | 0.559 | 0.921 | 0.846 | 1.22 | 0.802 | 0.443 | 0.646 | 1.19 | 0.725 | 0.478 | 0.634
GIATGYLVLKE [DNMT3B_Y588] | 0.737 | 0.511 | 0.558 | 0.464 | 0.611 | 0.376 | 0.77 | 0.385 | 0.511 | 0.836 | 0.357 | 0.533 | 0.4 | 0.744 | 2.28 | 0.717
ECKLRYSRKEG [PTPN11_Y263_L262R] | 0.527 | 0.457 | 0.533 | 0.484 | 0.53 | 0.376 | 0.606 | 0.52 | 0.503 | 0.378 | 0.523 | 0.452 | 0.423 | 0.746 | 0.679 | 0.453
YADGVYLALEE [DUOX2_Y70_Q71L] | 1.66 | 1.82 | 1.28 | 1.12 | 1.18 | 0.531 | 1.31 | 2.28 | 1.59 | 1.39 | 1.13 | 0.899 | 2.97 | 0.83 | 0.679 | 0.869
VYAANYYKLLG [ROR2_Y645_D644N] | 0.779 | 3.1 | 2.04 | 7.46 | 5.33 | 0.469 | 1.11 | 1.28 | 1.76 | 3.19 | 5.56 | 1.23 | 1.18 | 0.699 | 0.555 | 0.506
QQLQGYVPSNY [FRK_Y99_I100V] | 0.554 | 0.552 | 0.36 | 0.458 | 0.733 | 0.45 | 0.874 | 0.486 | 0.537 | 0.822 | 0.396 | 0.64 | 0.413 | 0.775 | 0.604 | 0.562
LFSINYLHFGD [KDM4C_Y201_E206D_YF] | 1.32 | 1.19 | 0.538 | 1.07 | 1.22 | 0.813 | 1.56 | 0.561 | 0.71 | 1.56 | 0.783 | 0.968 | 0.612 | 1.5 | 1.23 | 1.24
VVLEDYLDIKN [CLCNKB_Y138] | 1.02 | 0.499 | 0.671 | 0.668 | 0.608 | 0.391 | 1.2 | 0.534 | 0.434 | 1.07 | 0.464 | 0.576 | 0.421 | 0.747 | 0.786 | 0.497
WVFNHYRCIIW [BRCA2_Y2624_W2626C_YF] | 1.28 | 0.885 | 0.644 | 0.498 | 0.956 | 0.589 | 1.67 | 0.482 | 0.574 | 1.41 | 0.538 | 1.04 | 0.497 | 0.82 | 0.755 | 0.588
TFYQMYDKGLV [IARS2_Y231] | 1.38 | 2.49 | 3.66 | 0.986 | 1.25 | 1.33 | 0.916 | 3.3 | 3.46 | 0.797 | 7.11 | 0.91 | 3.71 | 0.941 | 1.29 | 0.838
CTTIHYTFMCN [TP53_Y234_N235T_YF] | 0.939 | 0.562 | 0.553 | 0.718 | 0.754 | 0.575 | 1.14 | 0.535 | 0.576 | 0.976 | 0.536 | 0.819 | 0.653 | 1.83 | 3.21 | 1.85
ERIEFYELNKK [PMM2_Y145_D148N] | 0.968 | 0.542 | 0.71 | 0.489 | 0.541 | 0.619 | 0.844 | 0.497 | 0.486 | 0.731 | 0.506 | 0.486 | 0.507 | 0.822 | 0.492 | 0.467
DVCKNYAKAKD [ALB_Y343_E345K] | 0.71 | 0.469 | 0.535 | 0.409 | 0.498 | 0.473 | 0.627 | 0.428 | 0.439 | 0.607 | 0.51 | 0.633 | 0.4 | 1.03 | 0.956 | 0.559
KVIDMYLMGCF [GABRB2_Y308_A304V] | 1.28 | 0.636 | 0.55 | 0.619 | 0.842 | 0.638 | 1.38 | 0.535 | 0.608 | 1.24 | 0.429 | 0.964 | 0.593 | 0.795 | 0.917 | 0.363
CTLLPYFSAPV [DGKE_Y269_R273P_YF] | 1.24 | 0.66 | 0.677 | 0.615 | 0.826 | 0.493 | 1.34 | 0.518 | 0.557 | 1.19 | 0.453 | 0.896 | 0.569 | 0.71 | 0.622 | 0.462
CTTIHYMYMCN [TP53_Y234_N235M] | 1.06 | 0.62 | 0.517 | 0.485 | 0.772 | 0.556 | 1.14 | 0.362 | 0.45 | 0.973 | 0.34 | 0.681 | 0.332 | 0.998 | 2.59 | 1.06
TLRETYGEMAD [ALB_Y108] | 0.999 | 0.54 | 0.559 | 0.519 | 0.836 | 0.446 | 1.2 | 0.627 | 0.555 | 0.982 | 0.454 | 0.885 | 0.702 | 1.11 | 0.579 | 0.91
EIKLAYRRRPP [GRIN2B_Y1109_E1106K] | 0.735 | 0.568 | 0.617 | 0.537 | 0.584 | 0.98 | 0.532 | 0.526 | 0.789 | 0.861 | 0.652 | 0.756 | 0.885 | 0.708 | 0.525 | 0.362
LNNIIYRVERA [CUX2_Y1470] | 1.48 | 0.87 | 0.958 | 0.825 | 0.816 | 0.748 | 1.34 | 0.936 | 0.738 | 1.22 | 0.43 | 0.864 | 1.33 | 1.13 | 1.62 | 0.558
ILDEAYVMASV [EGFR_Y764] | 1.16 | 0.598 | 0.559 | 0.641 | 0.763 | 0.538 | 1.33 | 0.505 | 0.515 | 1.07 | 0.409 | 0.692 | 0.612 | 0.708 | 0.632 | 0.356
LEAVSYSSRYA [RNLS_Y190] | 0.687 | 0.453 | 0.446 | 0.415 | 0.462 | 0.433 | 0.704 | 0.389 | 0.437 | 0.685 | 0.63 | 0.459 | 0.368 | 0.772 | 0.748 | 0.498
LPPREYVVVPS [CAPN1_Y494_G492R] | 2.29 | 3.78 | 4.02 | 2.83 | 2.46 | 1.73 | 2.17 | 1.41 | 1.73 | 1.04 | 0.631 | 0.726 | 0.48 | 0.918 | 1.03 | 1.17
GPRSLYNGLVA [UCP2_Y79] | 0.488 | 0.385 | 0.36 | 0.396 | 0.486 | 0.386 | 0.543 | 0.427 | 1.45 | 0.502 | 0.381 | 0.555 | 0.509 | 0.776 | 0.661 | 0.621
WGTPEYDSVVA [MAP1A_Y1883_A1881P] | 1.42 | 0.495 | 0.493 | 0.46 | 0.593 | 2.73 | 1.15 | 0.566 | 0.76 | 0.895 | 0.359 | 0.723 | 0.59 | 0.829 | 0.612 | 0.864
FARNSYVAGQF [G6PD_Y107_YF] | 0.662 | 0.321 | 0.398 | 0.503 | 0.522 | 0.36 | 0.712 | 0.489 | 0.501 | 0.522 | 0.427 | 0.442 | 0.408 | 0.81 | 0.517 | 0.442
